Assay [1] concerns the target CD320 extracellular, TC-binding part (MBP cleaved), as used for biochemical analysis of the complex (human) (UniProt Q9NPF0). The experiment in a line: cross-linking; purified complex at 10 mg/ml cross-linked with glutaraldehyde, 1 h RT, then high-mass MALDI-TOF mass spectrometry.
Assay [2] concerns the target MBP-tagged, biotinylated CD320 (CD320AVI) (human) (UniProt Q9NPF0). Put plainly: ELISA; solid-phase binding assay as a2, TC diluted in buffer with 100 mM sodium acetate pH 4.8, 0.5 mM CaCl2, 150 mM NaCl; n=5. Background: ELISA stands for enzyme-linked immunosorbent assay.
The target of assay [3] is MBP-tagged, biotinylated CD320ΔE88 (Avi Tag) (human) (UniProt Q9NPF0). The experiment in a line: ELISA; solid-phase binding assay: biotinylated MBP-tagged receptor on Neutravidin plates, tag-less TC serially diluted in 20 mM Tris pH 7.5, 0.5 mM CaCl2, 150 mM NaCl, 0.05% Tween-20, 1 h RT; TC detected with antibody A-5; single-site fit, n=5.
Assay [4] deals with MBP-tagged, biotinylated CD320 (CD320AVI) (human) (UniProt Q9NPF0). The description is as above.
Assay [5] shares this target. The experiment in a line: ELISA; solid-phase binding assay as a2, TC diluted in buffer with 100 mM Tris-HCl pH 7.5, 0.5 mM CaCl2, 150 mM NaCl; n=5.
The target of assay [6] is CD320(Gly4Ser)4 (flexible linker mutant: EGF-like domain replaced by (Gly4Ser)4) (human) (UniProt Q9NPF0). The experiment in a line: native MS; native ESI-MS of the purified complex and of its individually purified SEC peaks.
Assay [7] concerns the target CD320 extracellular, TC-binding part (MBP cleaved), as used for biochemical analysis of the complex (human) (UniProt Q9NPF0). The experiment in a line: co-expression and co-purification; TC construct and His9-MBP-CD320 construct co-expressed and secreted from Sf21 cells, complex captured from the medium on Ni-NTA through the receptor's tag.

For two molecules, stoichiometry N and Kd results are on record in article PMC4947154.

One may read the stoichiometry N as the number of molecules, sites or subunits per partner or assembly. What is called Kd is a measure of binding affinity in units of concentration. Higher therefore signals a looser complex.

Sequence of CD320(Gly4Ser)4 (flexible linker mutant: EGF-like domain replaced by (Gly4Ser)4) (human) (Q9NPF0 other isoform, or with tags, fused parts or gaps, change not shown): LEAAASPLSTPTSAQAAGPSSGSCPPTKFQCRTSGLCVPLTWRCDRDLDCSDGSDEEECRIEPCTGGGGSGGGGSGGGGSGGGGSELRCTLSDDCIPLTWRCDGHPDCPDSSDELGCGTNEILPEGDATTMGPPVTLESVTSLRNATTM

B1: human transcobalamin (holo-TC, cyanocobalamin-bound) (natural protein)
chain: EMCEIPEMDSHLVEKLGQHLLPWMDRLSLEHLNPSIYVGLRLSSLQAGTKEDLYLHSLKLGYQQCLLGSAFSEDDGDCQGKPSMGQLALYLLALRANCEFVRGHKGDRLVSQLKWFLEDEKRAIGHDHKGHPHTSYYQYGLGILALCLHQKRVHDSVVDKLLYAVEPFHQGHHSVDTAAMAGLAFTCLKRSNFNPGRRQRITMAIRTVQEEILKAQTPEGHFGNVYSTPLALQFLMTSPMRGAELGTACLKARVALLASLQDGAFQNALMISQLLPVLNHKTYIDLIFPDCLAPRVMLEPAAETIPQTQEIISVTLQVLSLLPPYRQSISVLAGSTVEDVLKKAHELGGFTYETQASLSGPYLTSVMGKAAGEREFWQLLRDPNTPLLQGIADYRPKDGETIELRLVSW
As to B1, the stoichiometry N in assay [1] and in assay [6] was 1 TC:CD320 each time. In addition, the Kd in assay [2] is 58 nM; in assay [3] it was 1.5 nM; in assay [4] it was 1.5 nM; in assay [5] it was 1 nM.

B2: TCα (α domain of human transcobalamin, residues 1-290) (domain or fragment)
chain: EMCEIPEMDSHLVEKLGQHLLPWMDRLSLEHLNPSIYVGLRLSSLQAGTKEDLYLHSLKLGYQQCLLGSAFSEDDGDCQGKPSMGQLALYLLALRANCEFVRGHKGDRLVSQLKWFLEDEKRAIGHDHKGHPHTSYYQYGLGILALCLHQKRVHDSVVDKLLYAVEPFHQGHHSVDTAAMAGLAFTCLKRSNFNPGRRQRITMAIRTVQEEILKAQTPEGHFGNVYSTPLALQFLMTSPMRGAELGTACLKARVALLASLQDGAFQNALMISQLLPVLNHKTYIDLIFPD
In the case of B2, the stoichiometry N in assay [7] was 1 TCα:CD320.
